T1: full-length human Regnase-1 with a FLAG tag on the N-terminal side and a biotin ligase BirA recognition … (human, UniProt Q5D1E8 1-599, biotinylated where required ; Biotinylated at the BirA recognition sequence where required. That sequence is not in the letters.)
T1 construct: Expressed in Expi293 cells, purified on FLAG M2 agarose and by gel filtration; also called full-length Regnase-1; human full-length Regnase-1
T1 sequence: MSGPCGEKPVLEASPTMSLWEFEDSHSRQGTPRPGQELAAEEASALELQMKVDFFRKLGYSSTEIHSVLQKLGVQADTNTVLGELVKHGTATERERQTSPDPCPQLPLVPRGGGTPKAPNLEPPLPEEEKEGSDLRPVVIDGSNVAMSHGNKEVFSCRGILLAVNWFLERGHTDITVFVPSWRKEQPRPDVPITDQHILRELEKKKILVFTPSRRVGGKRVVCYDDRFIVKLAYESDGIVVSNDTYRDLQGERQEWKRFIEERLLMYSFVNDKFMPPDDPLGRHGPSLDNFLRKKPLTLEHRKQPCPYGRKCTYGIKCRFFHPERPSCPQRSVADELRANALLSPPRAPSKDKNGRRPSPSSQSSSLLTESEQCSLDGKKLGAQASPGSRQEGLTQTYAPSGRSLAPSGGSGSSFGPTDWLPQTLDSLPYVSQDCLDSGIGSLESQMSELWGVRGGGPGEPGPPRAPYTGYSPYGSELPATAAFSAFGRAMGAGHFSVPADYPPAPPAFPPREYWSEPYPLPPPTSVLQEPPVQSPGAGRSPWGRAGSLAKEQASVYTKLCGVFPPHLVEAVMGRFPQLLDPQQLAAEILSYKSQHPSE

T2: Peptide 1 (CLDSGIGSLESQMSELWGVRGG), biotin-conjugated (human, biotin-conjugated)
T2 construct: also called human Regnase-1 peptide
T2 peptide: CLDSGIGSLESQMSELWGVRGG


What was measured:
[1] = target: T1, full-length human Regnase-1 with a FLAG …; assay: flow cytometry of antigen-coated streptavidin beads
[2] = target: T2, Peptide 1 (CLDSGIGSLESQMSELWGVRGG), …; assay: as above

Row | binding result [1] | binding result [2] | Binder
1 | binds | binds | REA0023 (antibody, V domains shown, Rabbit antibody gene expressed in HEK293 cells, purified by Protein A; also called anti-Regnase-1 antibody; anti-non-phosphorylated Regnase-1 peptide antibody) VH: QSLEESGGDLVKPGASLTLTCTDAGFSFSGVYWMHWVRQAPGKGLEWIACINAGSSGSTYYASWAKGRFTISKPSSTTVTLQMTSLTVADTATYFCARSFTLWGPGTLVTVSS VL: AVVTQTPSSVSAAVGGTVTIKCQSSQSVGNNNYLAWFQQKPGQPPKLLIYSASTLASGVPSRFSGSGSGTQFTLTISGVQCDDAATYYCLGGYDGDGEAFYVFGGGTEVVVKG
2 | binds | binds | REA0027 (antibody, V domains shown, Rabbit antibody gene expressed in HEK293 cells, purified by Protein A; also called anti-Regnase-1 antibody; anti-non-phosphorylated Regnase-1 peptide antibody) VH: QSLEESGGDLVKPGASLTLTCTASGFGFSSSYWMHWVRQAPGKGLEWIACINAGSSTKTYYASWAKGRFTISKPSSTTVTLQMTSLTVADTATYFCAWSFNLWGPGTLVTVSS VL: AVVTQTPSSVSAAVGGTVTIKCQSSQSVGNNNWLAWFQQKPGQPPKLLIYSASTLASGVPSRFSGSGSGTQFTLTISGVQCDDAATYYCLGGYDGDGEAFYVFGGGTEVVVKG

Source: patent US20220125891A1 (OSAKA UNIVERSITY, published 2022)
